The text below walks through data of PMC9352680, “A comprehensive thermodynamic model for RNA binding by the Saccharomyces cerevisiae Pumilio protein PUF4”.

The target in this data set is T1, PUF4 RNA-binding domain (Saccharomyces cerevisiae, UniProt P25339 537-888).
T1 sequence: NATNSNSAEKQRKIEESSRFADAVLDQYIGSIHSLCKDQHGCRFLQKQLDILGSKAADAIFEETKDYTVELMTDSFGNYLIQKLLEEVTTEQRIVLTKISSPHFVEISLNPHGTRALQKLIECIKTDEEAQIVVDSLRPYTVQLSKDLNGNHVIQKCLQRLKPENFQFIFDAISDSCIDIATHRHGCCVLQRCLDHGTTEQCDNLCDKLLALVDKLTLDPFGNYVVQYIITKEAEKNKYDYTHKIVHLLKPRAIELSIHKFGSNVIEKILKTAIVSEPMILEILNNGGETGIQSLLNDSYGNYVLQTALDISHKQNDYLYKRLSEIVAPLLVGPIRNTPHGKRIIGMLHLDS
The data set is described as follows: Mg; RNA-MaP; 20 mM Na-HEPES pH 7.4, 30 mM KOAc, 0.75 mM MgCl2, 0.1% Tween-20, 5% glycerol, 0.1 mg/mL BSA, 2 mM DTT; 25 C; 0.0125-409.6 nM protein. As to conditions: tags: N-His6-TEV cleaved; C-SNAP kept, Cy3B-labelled; label: tethered on chip by stalled RNA polymerase.

One may read the Kd as the equilibrium constant for the complex coming apart. Low values mean a tighter complex, high ones a looser complex. As for UCUCUUCUCCCUUUGUAUAUAUAUCUCUU (ssRNA) [Ie_S1_P3E.2_K3.1_C3.2_[+-1CCCTT]_H3.1_A3.1_F3.1_T3.2], binding was put at a Kd of 6.24 nM. For UCUCUUCUUCUCUUGUAUAUAUAUCUCUU (ssRNA) [Ie_S1_P3E.2_K3.1_C3.2_[+-1TCTCT]_H3.1_A3.1_F3.1_T3.2] the value was 5.94 nM; for UCUCUUCUCCUUGUAUAUAUAUCUCUU (ssRNA) [Ie_S1_P3E.2_K3.1_C3.2_[+-2TCC]_H3.1_A3.1_F3.1_T3.2], 4.39 nM. For UCUCUUCUUUUUGUAUAUAUAUCUCUU (ssRNA) [Ie_S1_P3E.2_K3.1_C3.2_H3.1_[+1TTT]_A3.1_F3.1_T3.2] the value was 5.49 nM. In the case of UCUCUUCUUGCUCUCUAUAUAUAUCUCUU (ssRNA) [Ie_S1_P3E.2_K3.1_C3.2_H3.1_[+2CTCTC]_A3.1_F3.1_T3.2] it was 1140 nM. Consider UCUCUUUGUAAUCUUAUCUCUU (ssRNA) [Ib_S1_P5E.1_K5.1_C5.1_H5.1_A5.1_[T5A]_[A7C]_F5.1_T5.1], for which binding was put at a Kd of 12.1 nM. This Kd is about 94-fold lower than that of the molecule before. For UCUCUUCCCCUUUUGUAUAUAUAUCUCUU (ssRNA) [Ie_S1_P3E.2_K3.1_C3.2_[+-2CCCTT]_H3.1_A3.1_F3.1_T3.2] the value was 5.86 nM; for UCUCUUCUUGCCCUUAUAUAUAUCUCUU (ssRNA) [Ie_S1_P3E.2_K3.1_C3.2_H3.1_[+2CCCT]_A3.1_F3.1_T3.2], 1190 nM; for UCUCUUCCCUCUUGUAUAUAUAUCUCUU (ssRNA) [Ie_S1_P3E.2_K3.1_C3.2_[+-2CCTC]_H3.1_A3.1_F3.1_T3.2], 7.14 nM. In the case of UCUCUUCUUCCUUUGUAUAUAUAUCUCUU (ssRNA) [Ie_S1_P3E.2_K3.1_C3.2_[+-2TTCCT]_H3.1_A3.1_F3.1_T3.2] it was 6.01 nM. For UCUCUUCUUGCUCUUAUAUAUAUCUCUU (ssRNA) [Ie_S1_P3E.2_K3.1_C3.2_H3.1_[+2CTCT]_A3.1_F3.1_T3.2] the value was 824 nM; for UCUCUUCUUUUCCUGUAUAUAUAUCUCUU (ssRNA) [Ie_S1_P3E.2_K3.1_C3.2_H3.1_[+1TTCCT]_A3.1_F3.1_T3.2], 5.37 nM; for UCUCUUCUUCUUGUAUAUAUAUCUCUU (ssRNA) [Ie_S1_P3E.2_K3.1_C3.2_[+-1TCT]_H3.1_A3.1_F3.1_T3.2], 4.28 nM. UCUCUUCUUCCCUGUAUAUAUAUCUCUU (ssRNA) [Ie_S1_P3E.2_K3.1_C3.2_H3.1_[+1CCCT]_A3.1_F3.1_T3.2] had a Kd of 4.02 nM. Take UCUCUUCUUCCUCUGUAUAUAUAUCUCUU (ssRNA) [Ie_S1_P3E.2_K3.1_C3.2_H3.1_[+1CCTCT]_A3.1_F3.1_T3.2]: the Kd came out at 5.08 nM. For UCUCUUCUUUCUGUAUAUAUAUCUCUU (ssRNA) [Ie_S1_P3E.2_K3.1_C3.2_H3.1_[+1TCT]_A3.1_F3.1_T3.2], the affinity, expressed as Kd, was 3.95 nM. For UCUCUUCUCCUCUUGUAUAUAUAUCUCUU (ssRNA) [Ie_S1_P3E.2_K3.1_C3.2_[+-1CCTCT]_H3.1_A3.1_F3.1_T3.2] the value was 3.91 nM. In the case of UCUCUUCUUGUUCCUAUAUAUAUCUCUU (ssRNA) [Ie_S1_P3E.2_K3.1_C3.2_H3.1_[+2TTCC]_A3.1_F3.1_T3.2] it was 104 nM. Molecule UCUCUUCUUCCUGUAUAUAUAUCUCUU (ssRNA) [Ie_S1_P3E.2_K3.1_C3.2_H3.1_[+1CCT]_A3.1_F3.1_T3.2] had a Kd of 5.41 nM. In the case of UCUCUUCUUGUCUAUAUAUAUCUCUU (ssRNA) [Ie_S1_P3E.2_K3.1_C3.2_H3.1_[+2TC]_A3.1_F3.1_T3.2] it was 844 nM; in that of UCUCUUCUUGUUAUAUAUAUCUCUU (ssRNA) [Ie_S1_P3E.2_K3.1_C3.2_H3.1_[+2T]_A3.1_F3.1_T3.2], 29.7 nM. In turn, UCUCUUCCUUUUGUAUAUAUAUCUCUU (ssRNA) [Ie_S1_P3E.2_K3.1_C3.2_[+-2CTT]_H3.1_A3.1_F3.1_T3.2] came in with a dissociation constant (Kd) of 5.14 nM. For UCUCUUCUUGCCUUAUAUAUAUCUCUU (ssRNA) [Ie_S1_P3E.2_K3.1_C3.2_H3.1_[+2CCT]_A3.1_F3.1_T3.2] the value was 1510 nM. Turning to UCUCUUCUUGUUCUAUAUAUAUCUCUU (ssRNA) [Ie_S1_P3E.2_K3.1_C3.2_H3.1_[+3TCT]_A3.1_F3.1_T3.2], the Kd was found to be 53.2 nM. UCUCUUCUUCUCUGUAUAUAUAUCUCUU (ssRNA) [Ie_S1_P3E.2_K3.1_C3.2_H3.1_[+1CTCT]_A3.1_F3.1_T3.2] gave a Kd of 4.16 nM.

With UCUCUUCUUCUCUCGUAUAUAUAUCUCUU (ssRNA) [Ie_S1_P3E.2_K3.1_C3.2_H3.1_[+1CTCTC]_A3.1_F3.1_T3.2], the Kd amounted to 512 nM. Take UCUCUUCUCUCUCUGUAUAUAUAUCUCUU (ssRNA) [Ie_S1_P3E.2_K3.1_C3.2_[+-1CTCTC]_H3.1_A3.1_F3.1_T3.2]: the Kd was determined as 3.89 nM. In the case of UCUCUUCUUCUCGUAUAUAUAUCUCUU (ssRNA) [Ie_S1_P3E.2_K3.1_C3.2_H3.1_[+1CTC]_A3.1_F3.1_T3.2] it was 449 nM.

With UCUCUUCUUCCUCGUAUAUAUAUCUCUU (ssRNA) [Ie_S1_P3E.2_K3.1_C3.2_H3.1_[+1CCTC]_A3.1_F3.1_T3.2], the Kd was 475 nM. For UCUCUUUGUAAUUUUAUCUCUU (ssRNA) [Ib_S1_P5E.1_K5.1_C5.1_H5.1_A5.1_[T5A]_[A7T]_F5.1_T5.1] the value was 5.31 nM; for UCUCUUCCUCUCUUGUAUAUAUAUCUCUU (ssRNA) [Ie_S1_P3E.2_K3.1_C3.2_[+-2CTCTC]_H3.1_A3.1_F3.1_T3.2], 7.46 nM.

UCUCUUCUUGUCUCUAUAUAUAUCUCUU (ssRNA) [Ie_S1_P3E.2_K3.1_C3.2_H3.1_[+2TCTC]_A3.1_F3.1_T3.2] yielded a Kd of 456 nM. For UCUCUUCUUUCCUUGUAUAUAUAUCUCUU (ssRNA) [Ie_S1_P3E.2_K3.1_C3.2_[+-1TTCCT]_H3.1_A3.1_F3.1_T3.2] the value was 4.2 nM; for UCUCUUCUUGCCUCUUAUAUAUAUCUCUU (ssRNA) [Ie_S1_P3E.2_K3.1_C3.2_H3.1_[+2CCTCT]_A3.1_F3.1_T3.2], 1680 nM; for UCUCUUCUUUCUCGUAUAUAUAUCUCUU (ssRNA) [Ie_S1_P3E.2_K3.1_C3.2_H3.1_[+1TCTC]_A3.1_F3.1_T3.2], 261 nM. As to UCUCUUCUCUCUGUAUAUAUAUCUCUU (ssRNA) [Ie_S1_P3E.2_K3.1_C3.2_[+-1CTC]_H3.1_A3.1_F3.1_T3.2], the Kd was determined as 4.2 nM. In turn, UCUCUUCUUUCCGUAUAUAUAUCUCUU (ssRNA) [Ie_S1_P3E.2_K3.1_C3.2_H3.1_[+1TCC]_A3.1_F3.1_T3.2] displayed a Kd of 534 nM. The molecule UCUCUUCUUGCCUAUAUAUAUCUCUU (ssRNA) [Ie_S1_P3E.2_K3.1_C3.2_H3.1_[+2CC]_A3.1_F3.1_T3.2] came in with a Kd of 1170 nM. For UCUCUUCUCUCUUGUAUAUAUAUCUCUU (ssRNA) [Ie_S1_P3E.2_K3.1_C3.2_[+-2TCTC]_H3.1_A3.1_F3.1_T3.2] the value was 4.58 nM; for UCUCUUCUUGUCCUAUAUAUAUCUCUU (ssRNA) [Ie_S1_P3E.2_K3.1_C3.2_H3.1_[+2TCC]_A3.1_F3.1_T3.2], 62.9 nM; for UCUCUUCUUCCGUAUAUAUAUCUCUU (ssRNA) [Ie_S1_P3E.2_K3.1_C3.2_H3.1_[+1CC]_A3.1_F3.1_T3.2], 1270 nM.

In turn, UCUCUUCUUGUCUUAUAUAUAUCUCUU (ssRNA) [Ie_S1_P3E.2_K3.1_C3.2_H3.1_[+3CTT]_A3.1_F3.1_T3.2] had a Kd of 95.5 nM. Compared with the last molecule, the Kd is about 13-fold lower. UCUCUUCUUCUGUAUAUAUAUCUCUU (ssRNA) [Ie_S1_P3E.2_K3.1_C3.2_H3.1_[+1CT]_A3.1_F3.1_T3.2] gave a Kd of 4.75 nM. Compared with the last molecule, the Kd is about 20-fold lower. For UCUCUUCUUCCUUGUAUAUAUAUCUCUU (ssRNA) [Ie_S1_P3E.2_K3.1_C3.2_[+-2TTCC]_H3.1_A3.1_F3.1_T3.2] the value was 6.09 nM. UCUCUUUGUACUUUUAUCUCUU (ssRNA) [Ib_S1_P5E.1_K5.1_C5.1_H5.1_A5.1_[T5C]_[A7T]_F5.1_T5.1] had a Kd of 3.92 nM. UCUCUUCUCCCUUGUAUAUAUAUCUCUU (ssRNA) [Ie_S1_P3E.2_K3.1_C3.2_[+-1CCCT]_H3.1_A3.1_F3.1_T3.2] had a Kd of 2.61 nM. This Kd is about 1.5-fold lower than that of the molecule before. In the case of UCUCUUCCUCUUUGUAUAUAUAUCUCUU (ssRNA) [Ie_S1_P3E.2_K3.1_C3.2_[+-2CTCT]_H3.1_A3.1_F3.1_T3.2] it was 4.97 nM; in that of UCUCUUCUCUCUUUGUAUAUAUAUCUCUU (ssRNA) [Ie_S1_P3E.2_K3.1_C3.2_[+-2TCTCT]_H3.1_A3.1_F3.1_T3.2], 4.28 nM; in that of UCUCUUCUUGUCCAUAUAUAUCUCUU (ssRNA) [Ie_S1_P3E.2_K3.1_C3.2_H3.1_[+3CC]_A3.1_F3.1_T3.2], 822 nM. On to UCUCUUUGUAAUGUUAUCUCUU (ssRNA) [Ib_S1_P5E.1_K5.1_C5.1_H5.1_A5.1_[T5A]_[A7G]_F5.1_T5.1], for which binding was put at a Kd of 12.7 nM. In the case of UCUCUUCUUUCUCUGUAUAUAUAUCUCUU (ssRNA) [Ie_S1_P3E.2_K3.1_C3.2_H3.1_[+1TCTCT]_A3.1_F3.1_T3.2] it was 4.87 nM; in that of UCUCUUCCCCUUUGUAUAUAUAUCUCUU (ssRNA) [Ie_S1_P3E.2_K3.1_C3.2_[+-2CCCT]_H3.1_A3.1_F3.1_T3.2], 3.73 nM; in that of UCUCUUCUUGUCAUAUAUAUCUCUU (ssRNA) [Ie_S1_P3E.2_K3.1_C3.2_H3.1_[+3C]_A3.1_F3.1_T3.2], 67 nM. In the case of UCUCUUUGUAUGGUUAUCUCUU (ssRNA) [Ib_S1_P5E.1_K5.1_C5.1_H5.1_A5.1_[T6G]_[A7G]_F5.1_T5.1] it was 37.1 nM; in that of UCUCUUCUCCUGUAUAUAUAUCUCUU (ssRNA) [Ie_S1_P3E.2_K3.1_C3.2_[+-1CC]_H3.1_A3.1_F3.1_T3.2], 4.99 nM. In the case of UCUCUUCUUGUUUUAUAUAUAUCUCUU (ssRNA) [Ie_S1_P3E.2_K3.1_C3.2_H3.1_[+2TTT]_A3.1_F3.1_T3.2] it was 27.9 nM.
